Measurements as given in patent US20260242478A1 (published 2026).
Where no end group is shown, it is not given here.

B1: Phage-2247 peptide (SEQ ID NO: 2563) (peptide)
peptide: NIIRCTPAWMCDGF
B2: Phage-2238 peptide (SEQ ID NO: 2554) (peptide)
peptide: DFKWCIPTWMCEVY
B3: Phage-2250 peptide (SEQ ID NO: 2566) (peptide)
peptide: IDKWCIPAWMCEST
B4: Phage-2249 peptide (SEQ ID NO: 2565) (peptide)
peptide: IIKWCTPEWMCVGF
B5: Phage-2252 peptide (SEQ ID NO: 2568) (peptide)
peptide: ADKWCIPEWMCQQD
B6: Phage-2251 peptide (SEQ ID NO: 2567) (peptide)
peptide: GTNWCTPAWMCAGF
modifications: cysteine pairing not given here; also: displayed on bacteriophage as fusion to pIII
B7: Phage-2248 peptide (SEQ ID NO: 2564) (peptide)
peptide: LENWCKPAWMCWGM
B8: Phage-2246 peptide (SEQ ID NO: 2562) (peptide)
peptide: GEIWCTPKWMCDGF
B9: Phage-2243 peptide (SEQ ID NO: 2559) (peptide)
peptide: LMKWCIPQWMCQLD
B10: Phage-2242 peptide (SEQ ID NO: 2558) (peptide)
peptide: LMNWCIPPWMCSAQ
B11: Phage-2239 peptide (SEQ ID NO: 2555) (peptide)
peptide: HPNWCTPPWMCLGL
B12: Phage-2241 peptide (SEQ ID NO: 2557) (peptide)
peptide: VVKWCIPTWMCENS
B13: Phage-2244 peptide (SEQ ID NO: 2560) (peptide)
peptide: LVKLCIPEWMCSEG
B14: Phage-2245 peptide (SEQ ID NO: 2561) (peptide)
peptide: SEKLCIPEWMCAQA
modifications: cysteine pairing not given here; also: displayed on bacteriophage as fusion to pIII
B15: Phage-1823 (peptide)
peptide: TEIRCTPQWMCLGF
B16: Phage-1829 (peptide)
peptide: MDKWCTPPWMCDWL
B17: Phage-1827 (peptide)
peptide: VLKLCVPPWMCMAQ
B18: Phage-1822 (peptide)
peptide: WENWCTPAWMCVGF
B19: Phage-1828 (peptide)
peptide: MDNWCTPEWMCLGF
B20: Phage-1821 (peptide)
peptide: IVKRCEPMWMCAGF
modifications: cysteine pairing not given here; also: displayed on phage as pIII fusion, pIII sequence and linker not given here
B21: Phage-1824 (peptide)
peptide: VEKMCRPAWMCWVM
B22: Phage-1825 (peptide)
peptide: ISKLCTPPWMCEML
B23: Phage-1826 (peptide)
peptide: WENWCQPAWMCTGL
B24: Phage-1830 (peptide)
peptide: EPKWCTPAWMCEWM
B25: Phage-2363 (peptide)
peptide: AERWCIPDWMCNVI
notes: Peptide-180 library clone, tested as clonal phage supernatant
B26: Phage-2360 (peptide)
peptide: EEKWCRPAWMCEHA
notes: as for B25
B27: Phage-2364 (peptide)
peptide: GANLCIPPWMCLSS
notes: as for B25
B28: Phage-2362 (peptide)
peptide: EEKMCKPSWMCQLF
notes: as for B25
B29: Phage-2359 (peptide)
peptide: AANWCTPPWMCLGF
notes: as for B25
B30: Phage-2361 (peptide)
peptide: ITPWCIPPWMCPGP
notes: as for B25
B31: Phage-2205 (peptide)
peptide: VDRLCTPEWMCSGF
notes: Clonal phage of the peptide-180 library, tested as crude phage supernatant; not shown: fused to pIII of the bacteriophage
B32: Phage-2201 (peptide)
peptide: EYNWCTPRWMCKGF
notes: as for B31
B33: Phage-2192 (peptide)
peptide: MTPWCKPAWMCQGI
notes: as for B31
B34: Phage-2195 (peptide)
peptide: LYKWCMPAWMCEQK
notes: as for B31
B35: Phage-2197 (peptide)
peptide: LEKWCIPSWMCDGM
notes: as for B31
B36: Phage-2204 (peptide)
peptide: DLKLCKPEWMCNGM
notes: as for B31
B37: Phage-2194 (peptide)
peptide: HAMWCIPAWMCENL
notes: as for B31
B38: Phage-2200 (peptide)
peptide: GEIWCIPAWMCNTG
notes: as for B31
B39: Phage-2198 (peptide)
peptide: DVNWCTPPWMCWGF
notes: as for B31
B40: Phage-2193 (peptide)
peptide: ESHLCIPAWMCDVQ
notes: as for B31
B41: Phage-2202 (peptide)
peptide: HDKWCIPEWMCISL
notes: as for B31
B42: Phage-2203 (peptide)
peptide: MERWCIPEWMCERT
notes: as for B31
B43: Phage-2196 (peptide)
peptide: LADWCRPVWMCEGF
notes: as for B31
B44: Phage-2199 (peptide)
peptide: VEKWCIPSWMCQEL
notes: as for B31

biological target: T1, Anti-PSMA Fab (SEQ ID NOs: 19, 20); test: phage binding ELISA; biotinylated PSMA Fab on neutravidin plate, clonal phage supernatant, anti-M13 HRP detection;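 further: wells were preincubated with blocking buffer either containing PSMA antigen or without it before crude phage supernatant was added, briefly incubated, then washed prior to detection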
T1 construct: Biotinylated and captured on neutravidin-coated plates in the phage ELISA; also called 006 PSMA Fab
Description: (§1) Clonal phage were harvested as crude supernatants and screened via standard ELISAs. […] Prior to the addition of clonal phage. wells were incubated with blocking buffer and PSMA antigen or blocking buffer alone. Without washing or aspirating, clonal phage supernatants were then added to the wells and incubated for a short time. Wells were then washed followed by detection of bound phage using a horse radish conjugated anti-M13 antibody.

First: B1
Second: B2
The “Anti-PSMA Fab (SEQ ID NOs: 19, 20) signal” value of the first is lower: 1.55 for the first, 1.56 for the second.

B3 and B4 are the same in “Anti-PSMA Fab (SEQ ID NOs: 19, 20) signal” value: 1.55 for the first, 1.55 for the second.

B5 and B6 are the same in “Anti-PSMA Fab (SEQ ID NOs: 19, 20) signal” value: 1.55 for the first, 1.55 for the second.

B7 and B8 are the same in “Anti-PSMA Fab (SEQ ID NOs: 19, 20) signal” value: 1.55 for the first, 1.55 for the second.

B9 and B10 are the same in “Anti-PSMA Fab (SEQ ID NOs: 19, 20) signal” value: 1.56 for the first, 1.56 for the second.

B11 and B12 are the same in “Anti-PSMA Fab (SEQ ID NOs: 19, 20) signal” value: 1.56 for the first, 1.56 for the second.

B13 and B14 are the same in “Anti-PSMA Fab (SEQ ID NOs: 19, 20) signal” value: 1.56 for the first, 1.56 for the second.

biological target: T2, Anti-PSMA Fab (SEQ ID NOs: 19, 20); test: phage binding ELISA on captured anti-PSMA Fab; competitor: PSMA antigen
T2 construct: In the phage ELISA the Fab was biotinylated and captured on neutravidin coated plates; also called 006 PSMA Fab
Description: as §1

Going from B15 to B16, the “Anti-PSMA Fab signal in the presence of PSMA” value (from here on “Anti-PSMA Fab signal”) rises from 0.0871 to 0.136.

Compared with B17, B18 is lower in “Anti-PSMA Fab signal” value: 0.0968 for the first, 0.0932 for the second.

First: B19
Second: B20
The “Anti-PSMA Fab signal” value of the first is lower: 0.065 for the first, 0.264 for the second.

First: B21
Second: B22
The “Anti-PSMA Fab signal” value of the first is higher: 0.214 for the first, 0.0582 for the second.

Going from B23 to B24, the “Anti-PSMA Fab signal” value rises from 0.0691 to 0.0904.

biological target: T2, Anti-PSMA Fab (SEQ ID NOs: 19, 20); test: phage binding ELISA; clonal phage on biotinylated anti-PSMA Fab captured on neutravidin, anti-M13 HRP detection
Description: as §1

First: B15
Second: B16
The “Anti-PSMA Fab (SEQ ID NOs: 19, 20) signal” value of the first is higher: 2.37 for the first, 2.3 for the second.

Going from B17 to B18, the “Anti-PSMA Fab (SEQ ID NOs: 19, 20) signal” value rises from 2.32 to 2.37.

Going from B19 to B20, the “Anti-PSMA Fab (SEQ ID NOs: 19, 20) signal” value rises from 2.3 to 2.38.

First: B21
Second: B22
The “Anti-PSMA Fab (SEQ ID NOs: 19, 20) signal” value of the first is higher: 2.37 for the first, 2.33 for the second.

Going from B23 to B24, the “Anti-PSMA Fab (SEQ ID NOs: 19, 20) signal” value falls from 2.33 to 2.29.

biological target: T3, PSMA Fab; test: phage ELISA; biotinylated PSMA Fab on neutravidin plate pre-incubated with PSMA antigen as competitor, anti-M13 HRP detection;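 further: crude clonal phage supernatants tested, compared against control wells pre-incubated with blocking buffer only, without PSMA antigen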
T3 construct: also called Anti-PSMA Fab; 006 PSMA Fab
Description: as §1

Compared with B25, B26 is higher in “Phage binding ELISA signal, Anti-PSMA Fab in the presence of PSMA antigen” value (“Phage binding ELISA signal … of PSMA antigen” for short): 0.0567 for the first, 0.0625 for the second.

Compared with B27, B28 is higher in “Phage binding ELISA signal … of PSMA antigen” value: 0.0789 for the first, 0.09 for the second.

Going from B29 to B30, the “Phage binding ELISA signal … of PSMA antigen” value falls from 0.0888 to 0.0746.

biological target: T4, Anti-PSMA Fab (SEQ ID NOs: 19, 20); test: phage binding ELISA on captured Fab; competitor PSMA antigen pre-incubated in the wells
T4 construct: Biotinylated and captured on neutravidin coated plates in the phage ELISA; also called 006 PSMA Fab
Description: as §1

First: B31
Second: B32
The “Anti-PSMA Fab signal” value of the first is higher: 0.0763 for the first, 0.0617 for the second.

First: B33
Second: B34
The “Anti-PSMA Fab signal” value of the first is higher: 0.0994 for the first, 0.0702 for the second.

First: B35
Second: B36
The “Anti-PSMA Fab signal” value of the first is lower: 0.0637 for the first, 0.0815 for the second.

Going from B37 to B38, the “Anti-PSMA Fab signal” value falls from 0.0809 to 0.0549.

First: B39
Second: B40
The “Anti-PSMA Fab signal” value of the first is lower: 0.0743 for the first, 0.0973 for the second.

First: B41
Second: B42
The “Anti-PSMA Fab signal” value of the first is higher: 0.075 for the first, 0.072 for the second.

First: B43
Second: B44
The “Anti-PSMA Fab signal” value of the first is higher: 0.287 for the first, 0.0642 for the second.

biological target: T1, Anti-PSMA Fab (SEQ ID NOs: 19, 20); test: phage binding ELISA; PSMA Fab on plate pre-incubated with PSMA antigen as competitor, anti-M13 HRP detection;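 further: crude clonal phage supernatants added without washing to wells preincubated with PSMA in blocking buffer, compared with wells receiving blocking buffer only, then bound phage detected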
Description: as §1

Going from B1 to B2, the “Anti-PSMA Fab signal” value rises from 0.0619 to 0.0768.

Compared with B3, B4 is lower in “Anti-PSMA Fab signal” value: 0.105 for the first, 0.0748 for the second.

Compared with B5, B6 is lower in “Anti-PSMA Fab signal” value: 0.0665 for the first, 0.061 for the second.

First: B7
Second: B8
The “Anti-PSMA Fab signal” value of the first is higher: 0.0811 for the first, 0.0716 for the second.

First: B9
Second: B10
The “Anti-PSMA Fab signal” value of the first is higher: 0.249 for the first, 0.0907 for the second.

Going from B11 to B12, the “Anti-PSMA Fab signal” value rises from 0.0699 to 0.0889.

First: B13
Second: B14
The “Anti-PSMA Fab signal” value of the first is higher: 0.0711 for the first, 0.0686 for the second.

biological target: T3, PSMA Fab; test: phage ELISA; biotinylated PSMA Fab on neutravidin plate, clonal phage supernatant, anti-M13 HRP detection, blocking buffer alone
Description: as §1

First: B25
Second: B26
The “Phage binding ELISA signal, Anti-PSMA Fab” value of the first is lower: 1.41 for the first, 1.42 for the second.

B27 and B28 are the same in “Phage binding ELISA signal, Anti-PSMA Fab” value: 1.41 for the first, 1.41 for the second.

B29 and B30 are the same in “Phage binding ELISA signal, Anti-PSMA Fab” value: 1.42 for the first, 1.42 for the second.

biological target: T4, Anti-PSMA Fab (SEQ ID NOs: 19, 20); test: phage binding ELISA; biotinylated Fab on neutravidin plate, anti-M13 HRP detection
Description: as §1

Compared with B31, B32 is higher in “Anti-PSMA Fab (SEQ ID NOs: 19, 20) signal” value: 1.61 for the first, 1.62 for the second.

First: B33
Second: B34
The “Anti-PSMA Fab (SEQ ID NOs: 19, 20) signal” value of the first is higher: 1.63 for the first, 1.62 for the second.

Going from B35 to B36, the “Anti-PSMA Fab (SEQ ID NOs: 19, 20) signal” value falls from 1.62 to 1.61.

First: B37
Second: B38
The “Anti-PSMA Fab (SEQ ID NOs: 19, 20) signal” value of the first is higher: 1.63 for the first, 1.62 for the second.

Going from B39 to B40, the “Anti-PSMA Fab (SEQ ID NOs: 19, 20) signal” value rises from 1.62 to 1.63.

Going from B41 to B42, the “Anti-PSMA Fab (SEQ ID NOs: 19, 20) signal” value falls from 1.62 to 1.61.

B43 and B44 are the same in “Anti-PSMA Fab (SEQ ID NOs: 19, 20) signal” value: 1.62 for the first, 1.62 for the second.
